Laboratory results taken from PMC2768864 (The Journal of Experimental Medicine, 2009).

B1: plasma kallikrein (enzyme)
heavy: GCLTQLYENAFFRGGDVASMYTPNAQYCQMRCTFHPRCLLFSFLPASSINDMEKRFGCFLKDSVTGTLPKVHRTGAVSGHSLKQCGHQISACHRDIYKGVDMRGVNFNVSKVSSVEECQKRCTSNIRCQFFSYATQTFHKAEYRNNCLLKYSPGGTPTAIKVLSNVESGFSLKPCALSEIGCHMNIFQHLAFSDVDVARVLTPDAFVCRTICTYHPNCLFFTFYTNVWKIESQRNVCLLKTSESGTPSSSTPQENTISGYSLLTCKRTLPEPCHSKIYPGVDFGGEELNVTFVKGVNVCQETCTKMIRCQFFTYSLLPEDCKEEKCKCFLRLSMDGSPTRIAYGTQGSSGYSLRLCNTGDNSVCTTKTSTR
light: not shown
B2: Ixodes ricinus contact phase inhibitor (Ir-CPI) (natural protein)
chain: ANHKGRGRPAKCKLPPDDGPCRARIPSYYFDRKTKTCKEFMYGGCEGNENNFENITTCQEECRAKKV
B3: activated factor XII (FXIIa) (enzyme, human)
heavy: IPPWEAPKEHKYKAEEHTVVLTVTGEPCHFPFQYHRQLYHKCTHKGRPGPQPWCATTPNFDQDQRWGYCLEPKKVKDHCSKHSPCQKGGTCVNMPSGPHCLCPQHLTGNHCQKEKCFEPQLLRFFHKNEIWYRTEQAAVARCQCKGPDAHCQRLASQACRTNPCLHGGRCLEVEGHRLCHCPVGYTGAFCDVDTKASCYDGRGLSYRGLARTTLSGAPCQPWASEATYRNVTAEQARNWGLGGHAFCRNPDNDIRPWCFVLNRDRLSWEYCDLAQCQTPTQAAPPTPVSPRLHVPLMPAQPAPPKPQPTTRTPPQSQTPGALPAKREQPPSLTRNGPLSCGQRLRKSLSSMTR
light: VVGGLVALRGAHPYIAALYWGHSFCAGSLIAPCWVLTAAHCLQDRPAPEDLTVVLGQERRNHSCEPCQTLAVRSYRLHEAFSPVSYQHDLALLRLQEDADGSCALLSPYVQPVCLPSGAARPSETTLCQVAGWGHQFEGAEEYASFLQEAQVPFLSLERCSAPDVHGSSILPGMLCAGFLEGGTDACQGDSGGPLVCEDQAAERRLTLQGIISWGSGCGDRNKPGVYTDVAYYLAWIREHTVS

Assays:
Experiment in all cases: SPR
[1] = target: B2
[2] = target: B1
[3] = target: activated factor XI (FXIa) (human, UniProt P03951 19-387; P03951 388-625)
[4] = target: B3

Chain of activated factor XI (FXIa) (P03951 19-387, chain 1 of 2): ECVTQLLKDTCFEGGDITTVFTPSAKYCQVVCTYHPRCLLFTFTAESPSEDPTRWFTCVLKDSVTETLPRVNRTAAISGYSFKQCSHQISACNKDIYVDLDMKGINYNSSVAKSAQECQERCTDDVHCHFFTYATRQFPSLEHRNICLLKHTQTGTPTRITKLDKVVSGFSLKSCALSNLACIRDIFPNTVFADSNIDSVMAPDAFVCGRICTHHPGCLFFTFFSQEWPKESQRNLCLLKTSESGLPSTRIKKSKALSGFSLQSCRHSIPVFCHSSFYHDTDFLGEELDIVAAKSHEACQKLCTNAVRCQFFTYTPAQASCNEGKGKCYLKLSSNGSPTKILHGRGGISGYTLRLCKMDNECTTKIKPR
Chain of activated factor XI (FXIa) (P03951 388-625, chain 2 of 2): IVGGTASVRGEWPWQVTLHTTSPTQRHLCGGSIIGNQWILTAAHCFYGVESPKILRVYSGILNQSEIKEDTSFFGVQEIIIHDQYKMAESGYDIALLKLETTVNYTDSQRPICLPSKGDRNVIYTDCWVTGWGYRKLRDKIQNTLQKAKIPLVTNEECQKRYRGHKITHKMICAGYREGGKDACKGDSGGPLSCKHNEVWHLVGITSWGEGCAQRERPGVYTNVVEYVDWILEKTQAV

Row | Binder | ka1 (two-state model, formation of AB) [1] [M⁻¹ s⁻¹] | ka2 (two-state model, forward conformation change) [1] [s⁻¹] | kd1 (two-state model, dissociation of AB) [1] [s⁻¹] | kd2 (two-state model, backward conformation change) [1] [s⁻¹] | Ka [2] [M⁻¹] | Ka [3] [M⁻¹] | Ka [4] [M⁻¹]
1 | B1 | 34900 | 0.00834 | 0.0532 | 0.00142 |  |  | 
2 | B2 |  |  |  |  | 4.51e+06 | 3.83e+08 | 1.68e+08
3 | B3 | 219000 | 0.655 | 0.0946 | 0.105 |  |  | 
